Results: article PMC9692666, “The Inhibitory Effects and Cytotoxic Activities of the Stem Extract of Sarracenia purpurea against Melanoma Cells and the SsbA Protein” (Plants, 2022)
Read-outs that look alike come from different tables or passages of the source.

What was measured:
[1] = target: T1, SaSsbA (Staphylococcus aureus) (UniProt A0A0D1JHQ1); test: EMSA; conditions: EMSA: 40 mM Tris-HCl pH 7.5, 50 mM NaCl, 37 C, 60 min, 30 fmol/uL DNA (30 nM); 8% native PAGE in TBE
T1 sequence: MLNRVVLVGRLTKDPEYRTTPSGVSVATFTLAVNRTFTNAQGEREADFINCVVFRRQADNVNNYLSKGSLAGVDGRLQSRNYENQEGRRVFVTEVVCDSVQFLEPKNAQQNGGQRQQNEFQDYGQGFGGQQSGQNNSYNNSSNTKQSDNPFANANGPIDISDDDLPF

[2] = target: T2, SaSsbA (Staphylococcus aureus, UniProt A0A0D1JHQ1); test: EMSA inhibition of ssDNA binding
T2 construct: gene ssb; tetramer in crystal
T2 sequence (A0A0D1JHQ1 1-167): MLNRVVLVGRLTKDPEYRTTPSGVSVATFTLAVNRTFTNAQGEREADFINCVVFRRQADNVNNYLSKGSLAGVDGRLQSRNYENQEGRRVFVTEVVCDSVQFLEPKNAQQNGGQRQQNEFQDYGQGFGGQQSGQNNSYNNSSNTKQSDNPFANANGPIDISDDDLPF

[3] = target: T3, SaSsbA (Staphylococcus aureus, UniProt A0A0D1JHQ1 1-167); test: EMSA; EMSA: 40 mM Tris-HCl pH 7.5, 50 mM NaCl, 37 C, 60 min, 30 fmol/uL DNA (30 nM); 8% native PAGE in TBE; conditions: protein: recombinant; chain copies: 4; label: 5' biotin; single strand
[4] = target: T3, SaSsbA; test: EMSA; no shift up to 10 uM protein; EMSA: 40 mM Tris-HCl pH 7.5, 50 mM NaCl, 37 C, 60 min, 30 fmol/uL DNA (30 nM); 8% native PAGE in TBE; conditions: protein: recombinant; chain copies: 4; label: biotin on PS4 (strand 1); blunt

Molecule: CCCGAATTCGGATAGCTCGGTACCCTTTTTTTTTTTTTTTTTTTTTTTTT / GGGTACCGAGCTATCCGAATTCGGG [PS4/PS3-3'-dT25]
- K half [1]: 940 nM

Molecule: O=C1c2c(O)cc(O)cc2O[C@H](c2ccc(O)c(O)c2)[C@H]1O [dihydroquercetin]
- IC50 ([2]; read-out: no inhibition at 1000 μM): > 1000 µM

Molecule: O=C1c2c(O)cc(O)cc2O[C@H](c2ccc(O)cc2)[C@H]1O [dihydrokaempferol]
- IC50 ([2]; read-out: IC50): 750 ± 62 µM

Molecule: O=c1c(O)c(-c2cc(O)c(O)c(O)c2)oc2cc(O)cc(O)c12 [myricetin]
- IC50 ([2]; read-out: no inhibition at 300 μM): > 300 µM

Molecule: TTTTTTTTTTTTTTTTTTTTTTTTTTTTTT (ssDNA) [dT30]
- apparent K (half saturation) [3]: 460 ± 30 nM

Molecule: TTTTTTTTTTTTTTTTTTTT (ssDNA) [dT20]
- apparent K (half saturation) [3]: 1770 ± 110 nM

Molecule: TTTTTTTTTTTTTTTTTTTTTTTTTTTTTTTTTTT (ssDNA) [dT35]
- apparent K (half saturation) [3]: 360 ± 20 nM

B1: PS4/PS3 (dsDNA)
DNA 1: GGGTACCGAGCTATCCGAATTCGGG
DNA 2: CCCGAATTCGGATAGCTCGGTACCC
- binding result [4]: no binding

B2: dT59 (ssDNA)
DNA: TTTTTTTTTTTTTTTTTTTTTTTTTTTTTTTTTTTTTTTTTTTTTTTTTTTTTTTTTTT
- apparent K (half saturation) [3]: 240 ± 10 nM
